Source: paper PMC7048804

Assays:
[1] = target: ERCC1 (human) (UniProt P07992)
[2] = target: XPF–ERCC1 complex (human) (UniProt Q92889)
[3] = target: XPF–ERCC1 mutant 323–326Δ^XPF (human) (UniProt Q92889)

UniProt P07992, sequence (P07992 other isoform, or with tags, fused parts or gaps): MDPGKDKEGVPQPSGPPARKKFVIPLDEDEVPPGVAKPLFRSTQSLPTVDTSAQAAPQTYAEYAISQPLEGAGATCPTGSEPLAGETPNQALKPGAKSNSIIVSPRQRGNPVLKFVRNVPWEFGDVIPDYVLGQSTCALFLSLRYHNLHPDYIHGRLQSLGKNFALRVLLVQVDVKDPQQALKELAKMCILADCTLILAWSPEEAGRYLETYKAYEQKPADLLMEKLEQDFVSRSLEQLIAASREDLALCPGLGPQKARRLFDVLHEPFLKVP

| catalytic efficiency kcat/Km of XPF(S312A)–ERCC1 on a stem–loop DNA substrate, real-time fluorescence incision assay (wild type: 1.73) [1] [M⁻¹ s⁻¹] | catalytic efficiency kcat/Km of XPF–ERCC1–SLX4^NTD on a stem–loop DNA substrate, real-time fluorescence incision assay (XPF–ERCC1 alone: 1.73) [2] [M⁻¹ s⁻¹] | catalytic efficiency kcat/Km of XPF(323–326 Δ)–ERCC1–SLX4^NTD on a stem–loop DNA substrate, real-time fluorescence incision assay [3] [M⁻¹ s⁻¹] | Binder |
| --- | --- | --- | --- |
| 4.42e+07 | – | – | XPF S312A (enzyme) MESGQPARRIAMAPLLEYERQLVLELLDTDGLVVCARGLGADRLLYHFLQLHCHPACLVLVLNTQPAEEEYFINQLKIEGVEHLPRRVTNEITSNSRYEVYTQGGVIFATSRILVVDFLTDRIPSDLITGILVYRAHRIIESCQEAFILRLFRQKNKRGFIKAFTDNAVAFDTGFCHVERVMRNLFVRKLYLWPRFHVAVNSFLEQHKPEVVEIHVSMTPTMLAIQTAILDILNACLKELKCHNPSLEVEDLSLENAIGKPFDKTIRHYLDPLWHQLGAKTKSLVQDLKILRTLLQYLSQYDCVTFLNLLEALRATEKAFGQNSGWLFLDSSTSMFINARARVYHLPDAKMSKKEKISEKMEIKEGEETKKELVLESNPKWEALTEVLKEIEAENKESEALGGPGQVLICASDDRTCSQLRDYITLGAEAFLLRLYRKTFEKDSKAEEVWMKFRKEDSSKRIRKSHKRPKDPQNKERASTKERTLKKKKRKLTLTQMVGKPEELEEEGDVEEGYRREISSSPESCPEEIKHEEFDVNLSSDAAFGILKEPLTIIHPLLGCSDPYALTRVLHEVEPRYVVLYDAELTFVRQLEIYRASRPGKPLRVYFLIYGGSTEEQRYLTALRKEKEAFEKLIREKASMVVPEEREGRDETNLDLVRGTASADVSTDTRKAGGQEQNGTQQSIVVDMREFRSELPSLIHRRGIDIEPVTLEVGDYILTPEMCVERKSISDLIGSLNNGRLYSQCISMSRYYKRPVLLIEFDPSKPFSLTSRGALFQEISSNDISSKLTLLTLHFPRLRILWCPSPHATAELFEELKQSKPQPDAATALAITADSETLPESEKYNPGPQDFLLKMPGVNAKNCRSLMHHVKNIAELAALSQDELTSILGNAANAKQLYDFIHTSFAEVVSKGKGKK |
| – | 1.73e+08 | 5e+06 | SLX4^NTD (residues 1–758) (domain or fragment) MKLSVNEAQLGFYLGSLSHLSACPGIDPRSSEDQPESLKTGQMMDESDEDFKELCASFFQRVKKHGIKEVSGERKTQKAASNGTQIRSKLKRTKQTATKTKTLQGPAEKKPPSGSQAPRTKKQRVTKWQASEPAHSVNGEGGVLASAPDPPVLRETAQNTQTGNQQEPSPNLSREKTRENVPNSDSQPPPSCLTTAVPSPSKPRTAQLVLQRMQQFKRADPERLRHASEECSLEAAREENVPKDPQEEMMAGNVYGLGPPAPESDAAVALTLQQEFARVGASAHDDSLEEKGLFFCQICQKNLSAMNVTRREQHVNRCLDEAEKTLRPSVPQIPECPICGKPFLTLKSRTSHLKQCAVKMEVGPQLLLQAVRLQTAQPEGSSSPPMFSFSDHSRGLKRRGPTSKKEPRKRRKVDEAPSEDLLVAMALSRSEMEPGAAVPALRLESAFSERIRPEAENKSRKKKPPVSPPLLLVQDSETTGRQIEDRVALLLSEEVELSSTPPLPASRILKEGWERAGQCPPPPERKQSFLWEGSALTGAWAMEDFYTARLVPPLVPQRPAQGLMQEPVPPLVPPEHSELSERRSPALHGTPTAGCGSRGPSPSASQREHQALQDLVDLAREGLSASPWPGSGGLAGSEGTAGLDVVPGGLPLTGFVVPSQDKHPDRGGRTLLSLGLLVADFGAMVNNPHLSDVQFQTDSGEVLYAHKFVLYARCPLLIQYVNNEGFSAVEDGVLTQRVLLGDVSTEAARTFLHYLYTA |
